Measurements taken from patent publication US20090081786A1, “Peptide sequences for modulation of protein kinase C” (priority 2006, published 2009).

Biological target: annexin V endogenous in CHO-K1 cells (Homo sapiens (Human)) (UniProt P08758)
Experiment: co-immunoprecipitation from CHO cells stimulated with 10 nM PMA, FIG. 2

“δ-PKC endogenous in CHO-K1 cells (from UniProt P28867 1-674) (enzyme)” was tested, and the fold increase in the amount of complex after PMA stimulation (against before stimulation) was 4 fold.
